Laboratory results from US20220396612A1 (UNIVERSIT DE TOURS, published 2022).

Key:
[1] = biological target: T1, virus-like particles (VLPs) of BK polyomavirus VP-1 protein, serotype Ib2 (BK virus (BKPyV), serotype Ib2, PA …, UniProt P03088 1-362); assay: ELISA on coated VLP; supernatant 1/160
T1 construct: native VLPs; also the immunogen; also called VLP Ib2; BK Ib2
T1 chain: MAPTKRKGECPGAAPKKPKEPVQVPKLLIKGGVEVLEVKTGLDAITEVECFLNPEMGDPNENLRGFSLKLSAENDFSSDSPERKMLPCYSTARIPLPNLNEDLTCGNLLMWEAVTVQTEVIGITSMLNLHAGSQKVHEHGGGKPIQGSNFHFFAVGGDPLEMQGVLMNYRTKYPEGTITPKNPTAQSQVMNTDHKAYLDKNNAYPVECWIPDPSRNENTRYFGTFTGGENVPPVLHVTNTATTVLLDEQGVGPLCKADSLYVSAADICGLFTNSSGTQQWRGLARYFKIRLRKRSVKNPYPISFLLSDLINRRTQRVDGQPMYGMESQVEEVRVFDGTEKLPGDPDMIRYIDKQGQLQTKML
Description: (§1) To do this, the VLPs produced were deposited at a concentration of 1 μg/mL in PBS and incubated overnight at +4° C. The wells were then blocked for 1 h at +37° C. with a PBS/FCS (phosphate-buffered saline/fetal calf serum) mixture. After dilution in a dilution buffer containing FCS, PBS and Tween® 20, the various hybridoma culture supernatants were added for 1 h at +37° C. The wells were washed four times in a row with Wash Buffer and a secondary anti-mouse antibody coupled to peroxidase was added to the 1:2000 dilution for 1 h at +37° C. The wells were washed four more times and the substrate (OPD (ortho phenylene diamine)+H₂O₂) was added for 30 min at room temperature. A stop solution (H₂SO₄ 4N) was then added and each well was read by measuring the absorbance at 492 nm with a spectrophotometer. The value obtained for the average of the control wells (PBS in the first step) is subtracted from the optical density values obtained for each well.

[2] = biological target: T2, virus-like particles (VLPs) of BK polyomavirus VP-1 protein, serotype Ia (BK virus (BKPyV), serotype Ia, UniProt P03088 1-361); assay: ELISA on coated VLP; supernatant 1/160
T2 construct: self-assembled native VLPs coated on ELISA plates; also called VLP Ia; BKV VP-1, serotype Ia
T2 chain: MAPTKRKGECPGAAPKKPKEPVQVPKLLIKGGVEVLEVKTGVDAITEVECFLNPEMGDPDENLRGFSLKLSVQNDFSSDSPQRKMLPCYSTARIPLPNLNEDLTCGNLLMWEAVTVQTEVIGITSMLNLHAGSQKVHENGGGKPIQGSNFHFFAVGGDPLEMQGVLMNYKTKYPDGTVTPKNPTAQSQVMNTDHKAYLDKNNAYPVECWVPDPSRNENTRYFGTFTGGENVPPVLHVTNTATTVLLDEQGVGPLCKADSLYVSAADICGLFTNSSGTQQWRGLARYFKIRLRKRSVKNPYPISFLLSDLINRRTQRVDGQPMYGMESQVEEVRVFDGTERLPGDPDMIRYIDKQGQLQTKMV
Description: as §1

[3] = biological target: T1, virus-like particles (VLPs) of BK …; assay: ELISA on coated VLP;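 note: hybridoma culture supernatants (mouse antibodies) tested on wells coated with 1 µg/mL VLPs, peroxidase anti-mouse detection with OPD, background from PBS-coated control wells subtracted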
Description: as §1

[4] = biological target: T3, virus-like particles (VLPs) of BK polyomavirus VP-1 protein, serotype II (BK virus (BKPyV), serotype II, UniProt P14996 1-362); assay: ELISA on coated VLP;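 note: hybridoma culture supernatants (mouse antibodies) tested on wells coated with 1 µg/mL VLPs, peroxidase anti-mouse detection with OPD, background from PBS-coated control wells subtracted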
T3 construct: native VLPs; also called VLP II
T3 chain: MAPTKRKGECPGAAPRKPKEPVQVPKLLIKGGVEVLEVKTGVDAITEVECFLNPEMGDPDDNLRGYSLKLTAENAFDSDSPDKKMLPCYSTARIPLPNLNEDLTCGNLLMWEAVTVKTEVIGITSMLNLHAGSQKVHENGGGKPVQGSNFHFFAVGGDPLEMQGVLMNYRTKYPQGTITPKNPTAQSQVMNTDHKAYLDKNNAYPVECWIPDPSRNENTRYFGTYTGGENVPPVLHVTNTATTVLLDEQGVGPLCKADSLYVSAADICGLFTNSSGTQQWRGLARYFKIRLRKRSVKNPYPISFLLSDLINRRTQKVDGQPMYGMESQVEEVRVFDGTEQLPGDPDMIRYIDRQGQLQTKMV
Description: as §1

[5] = biological target: T2, virus-like particles (VLPs) of BK …; assay: ELISA on coated VLP;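 note: hybridoma culture supernatants (mouse antibodies) tested on wells coated with 1 µg/mL VLPs, peroxidase anti-mouse detection with OPD, background from PBS-coated control wells subtracted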
Description: as §1

[6] = biological target: T4, virus-like particles (VLPs) of BK polyomavirus VP-1 protein, serotype IV (BK virus (BKPyV), serotype IV, UniProt P14996 1-362); assay: ELISA on coated VLP;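 note: hybridoma culture supernatants (mouse antibodies) tested on wells coated with 1 µg/mL VLPs, peroxidase anti-mouse detection with OPD, background from PBS-coated control wells subtracted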
T4 construct: native VLPs; also called VLP IV
T4 chain: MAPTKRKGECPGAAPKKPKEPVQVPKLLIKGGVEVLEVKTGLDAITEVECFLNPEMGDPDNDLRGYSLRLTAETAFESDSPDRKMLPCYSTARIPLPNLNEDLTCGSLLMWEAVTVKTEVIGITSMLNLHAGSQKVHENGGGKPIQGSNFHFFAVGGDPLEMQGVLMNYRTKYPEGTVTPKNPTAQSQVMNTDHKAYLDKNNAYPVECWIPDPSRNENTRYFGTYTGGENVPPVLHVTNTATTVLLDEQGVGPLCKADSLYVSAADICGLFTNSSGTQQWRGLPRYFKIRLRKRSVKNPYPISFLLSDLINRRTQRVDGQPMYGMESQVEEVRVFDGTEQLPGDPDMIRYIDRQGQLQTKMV
Description: as §1

[7] = biological target: T5, virus-like particles (VLPs) of BK polyomavirus VP-1 protein, serotype III (BK virus (BKPyV), serotype III, UniProt P14996 1-362); assay: ELISA on coated VLP
T5 construct: native VLPs; also called VLP III
T5 chain: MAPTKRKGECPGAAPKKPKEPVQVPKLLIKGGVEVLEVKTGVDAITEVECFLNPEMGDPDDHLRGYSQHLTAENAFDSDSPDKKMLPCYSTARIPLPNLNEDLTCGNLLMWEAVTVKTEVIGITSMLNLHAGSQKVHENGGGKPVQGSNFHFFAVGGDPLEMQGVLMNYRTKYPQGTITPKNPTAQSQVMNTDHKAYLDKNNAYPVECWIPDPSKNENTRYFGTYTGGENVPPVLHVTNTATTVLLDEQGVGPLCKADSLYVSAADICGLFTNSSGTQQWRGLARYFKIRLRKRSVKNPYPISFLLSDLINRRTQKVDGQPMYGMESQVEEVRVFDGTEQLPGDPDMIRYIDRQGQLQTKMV
Description: as §1

[8] = biological target: T1, virus-like particles (VLPs) of BK …; assay: ELISA on coated VLP (detection limit OD>0.5)
Description: as §1

[9] = biological target: T6, virus-like particles (VLPs) of JC polyomavirus VP-1 protein (JC virus (JCPyV), UniProt P03089 1-354, Assembled into virus-like particles (many VP-1 copies); the letters give one VP-1 chain.); assay: ELISA on coated VLP (detection limit OD>0.5)
T6 construct: Expressed in insect cells by baculovirus; VLPs coated on ELISA plates; also called JCPyV VLPs; JCPyV
T6 sequence (P03089 whole entry): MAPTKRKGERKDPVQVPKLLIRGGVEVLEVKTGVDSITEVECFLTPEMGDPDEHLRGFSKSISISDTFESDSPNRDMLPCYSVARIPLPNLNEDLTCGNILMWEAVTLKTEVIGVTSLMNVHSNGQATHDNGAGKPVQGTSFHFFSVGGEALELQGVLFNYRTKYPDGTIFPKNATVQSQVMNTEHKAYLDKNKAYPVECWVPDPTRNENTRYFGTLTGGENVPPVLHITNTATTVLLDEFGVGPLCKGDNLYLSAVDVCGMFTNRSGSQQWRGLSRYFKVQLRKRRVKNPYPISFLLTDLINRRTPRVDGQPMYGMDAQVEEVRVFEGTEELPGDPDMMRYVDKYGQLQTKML
Description: as §1

[10] = biological target: T6, virus-like particles (VLPs) of JC …; assay: ELISA on coated JCPyV VLPs

| Binder | OD 492 nm [1] [OD] | OD 492 nm [2] [OD] | OD 492 nm [3] [OD] | OD 492 nm [4] [OD] | OD 492 nm [5] [OD] | OD 492 nm [6] [OD] | OD 492 nm [7] [OD] | OD 492 nm [8] [OD] | OD 492 nm [9] [OD] | binding result [10] |
| --- | --- | --- | --- | --- | --- | --- | --- | --- | --- | --- |
| monoclonal antibody ‘H6’ secreted by clone BK6A2H6 (antibody, V domains shown) VH: EVQLQQSGPELVKPGASVKISCKASGYSFTGYFMNWVKQSHGKSLEWIGRINPYNGDTFYNQKFKGKATLTVDKSSSTAHMELLSLTSEDSAVYYCGSYYYGDYFDYWGQGTTLTVSS VL: SIVMTQIPKFLLVSEGDRVTITCKASQSVSNDVAWYQQKSGQSPKLLIYYASNRYTGVPDRFTGSGYGTDFTFTISTVQAEDLAVYFCQQDYSSPLTFGAGTKLELKR | 0.4 | 3.06 | 3.19 | 0.86 | 3.06 | 3.21 | 0.481 | 2.97 | 0.013 | no binding (tested: detection limit: OD>0.5) |
| monoclonal antibody ‘F6’ secreted by clone BK6A2F6 (antibody) heavy: EVQLQQSGPELVKPGASVKISCKASGYSFTGYFMNWVKQSHGKSLEWIGRINPYNGDTFYNQKFKGKATLTVDKSSSTAHMELLSLTSEDSAVYYCGSYYYGDYFDYWGQGTTLTVSSAKTTPPSVYPLAPGSAAQTNSMVTLGCLVKGYFPEPVTVTWNSGSLSSGVHTFPAVLQSDLYTLSSSVTVPSSTWPSETVTCNVAHPASSTKVDKKIVPRDCGCKPCICTVPEVSSVFIFPPKPKDVLTITLTPKVTCVVVDISKDDPEVQFSWFVDDVEVHTAQTQPREEQFNSTFRSVSELPIMHQDWLNGKEFKCRVNSAAFPAPIEKTISKTKGRPKAPQVYTIPPPKEQMAKDKVSLTCMITDFFPEDITVEWQWNGQPAENYKNTQPIMDTDGSYFVYSKLNVQKSNWEAGNTFTCSVLHEGLHNHHTEKSLSHSPGK light: […] | 0.4 | 3.21 | 2.89 | 1.65 | 3.23 | 3.16 | 0.42 | 3 | 0.028 | no binding (tested: detection limit: OD>0.5) |
| monoclonal antibody ‘18A2’ derived from hybridoma 18A2 (antibody, V domains shown, Mouse hybridoma antibody) VH: DVQLQESGPGLVKPSQSLSLTCSVTGYSITSGYYWNWIRQFPGNKLEWMGYISYDGSNNYNPSLKNRISITRDTSKNQFFLKLNSVTTEDTATYYCARWEGTTDYWGQGTTLTVSS VL: not shown |  |  | 3.02 | 1.05 | 2.22 | 1.22 | 0.763 | 0.565 | 0.116 | no binding (tested: detection limit: OD>0.5) |
